Consider 2 molecules from publication PMC11130294 (Nature Communications, 2024).

Assay [1] addresses T1, Staphylococcus aureus efflux pump NorA, wild type (S. aureus, UniProt P0A0J7).
T1 construct: NorA, major facilitator superfamily efflux pump of S. aureus; the construct is not described here; The C-terminal Myc tag is told only for the MRSA expression plasmid, not for this E. coli protein; also called wild-type NorA
Nature of the assay: MST; NorA in amphipol at varied concentrations mixed with fluorophore-labelled Fab at 40 nM; 20 mM Tris pH 7.5, 100 mM NaCl, 0.025% Tween-20; 15 min incubation; three replicates. Conditions: both partners purified.

The target of assay [2] is FabDA1. Nature of the assay: MST; pH 7.5: Fab labelled with a 647-nm fluorophore at 40 nM, NorA in PMAL-C8 amphipol at varied concentrations; 20 mM Tris pH 7.5, 100 mM NaCl, 0.025% Tween-20; 15 min incubation; fit with Hill slope 1.0; three replicates.
Assay [3] has as its target FabDA1. Nature of the assay: MST; pH 5.0: Fab labelled with a 647-nm fluorophore at 40 nM, NorA in PMAL-C8 amphipol at varied concentrations; 50 mM acetate pH 5.0, 100 mM NaCl, 0.025% Tween-20; 15 min incubation; fit with Hill slope 1.0; three replicates.

B1: Fab36 (Fab, V domains shown)
VH: EVQLVESGGGLVQPGGSLRLSCAASGFTFSSSSIHWVRQAPGKGLEWVASISSSSGSTSYADSVKGRFTISADTSKNTAYLQMNSLRAEDTAVYYCARYSRYYYYAWRVGGYWGGLDYWGQGTLVTVFN
VL: DIQMTQSPSSLSASVGDRVTITCRASQSVSSAVAWYQQKPGKAPKLLIYSASSLYSGVPSRFSGSRSGTDFTLTISSLQPEDFATYYCQQSSSSLITFGQGTKVEIK
notes: also called outward-open-specific Fab36
Take B1: the binding result in assay [1] is listed as “binds”.

B2: NorA (wild-type, Staphylococcus aureus efflux pump) (natural protein)
chain: MNKQIFVLYFNIFLIFLGIGLVIPVLPVYLKDLGLTGSDLGLLVAAFALSQMIISPFGGTLADKLGKKLIICIGLILFSVSEFMFAVGHNFSVLMLSRVIGGMSAGMVMPGVTGLIADISPSHQKAKNFGYMSAIINSGFILGPGIGGFMAEVSHRMPFYFAGALGILAFIMSIVLIHDPKKSTTSGFQKLEPQLLTKINWKVFITPVILTLVLSFGLSAFETLYSLYTADKVNYSPKDISIAITGGGIFGALFQIYFFDKFMKYFSELTFIAWSLLYSVVVLILLVFANGYWSIMLISFVVFIGFDMIRPAITNYFSNIAGERQGFAGGLNSTFTSMGNFIGPLIAGALFDVHIEAPIYMAIGVSLAGVVIVLIEKQHRAKLKEQNM
A word on the Kd: it is the concentration at which binding is half-saturated. As to B2, the Kd is greater than 24.5 µM in the assay with FabDA1 [2] and 2.9 µM in the assay with FabDA1 [3].
